From IntAct's records for PubMed 21602882

B1: Tumor protein 63 (Homo sapiens), Q9H3D4 (parent)
chain: MNFETSRCATLQYCPDPYIQRFVETPAHFSWKESYYRSTMSQSTQTNEFLSPEVFQHIWDFLEQPICSVQPIDLNFVDEPSEDGATNKIEISMDCIRMQDSDLSDPMWPQYTNLGLLNSMDQQIQNGSSSTSPYNTDHAQNSVTAPSPYAQPSSTFDALSPSPAIPSNTDYPGPHSFDVSFQQSSTAKSATWTYSTELKKLYCQIAKTCPIQIKVMTPPPQGAVIRAMPVYKKAEHVTEVVKRCPNHELSREFNEGQIAPPSHLIRVEGNSHAQYVEDPITGRQSVLVPYEPPQVGTEFTTVLYNFMCNSSCVGGMNRRPILIIVTLETRDGQVLGRRCFEARICACPGRDRKADEDSIRKQQVSDSTKNGDGTKRPFRQNTHGIQMTSIKKRRSPDDELLYLPVRGRETYEMLLKIKESLELMQYLPQHTIETYRQQQQQQHQHLLQKQTSIQSPSSYGNSSPPLNKMNSMNKLPSVSQLINPQQRNALTPTTIPDGMGANIPMMGTHMPMAGDMNGLSPTQALPPPLSMPSTSHCTPPPPYPTDCSIVSFLARLGCSSCLDYFTTQGLTTIYQIEHYSMDDLASLKIPEQFRHAIWKGILDHRQLHEFSSPSHLLRTPSSASTVSVGSSETRGERVIDAVRFTLRQTISFPPRDEWNDFNFDMDARRNKQQRIKEEGE

Variants of: B1
Conditions: with hipk2_human HIPK2, Q9H2X6
hipk2_human HIPK2, Q9H2X6, sequence (Q9H2X6 whole entry, looked up): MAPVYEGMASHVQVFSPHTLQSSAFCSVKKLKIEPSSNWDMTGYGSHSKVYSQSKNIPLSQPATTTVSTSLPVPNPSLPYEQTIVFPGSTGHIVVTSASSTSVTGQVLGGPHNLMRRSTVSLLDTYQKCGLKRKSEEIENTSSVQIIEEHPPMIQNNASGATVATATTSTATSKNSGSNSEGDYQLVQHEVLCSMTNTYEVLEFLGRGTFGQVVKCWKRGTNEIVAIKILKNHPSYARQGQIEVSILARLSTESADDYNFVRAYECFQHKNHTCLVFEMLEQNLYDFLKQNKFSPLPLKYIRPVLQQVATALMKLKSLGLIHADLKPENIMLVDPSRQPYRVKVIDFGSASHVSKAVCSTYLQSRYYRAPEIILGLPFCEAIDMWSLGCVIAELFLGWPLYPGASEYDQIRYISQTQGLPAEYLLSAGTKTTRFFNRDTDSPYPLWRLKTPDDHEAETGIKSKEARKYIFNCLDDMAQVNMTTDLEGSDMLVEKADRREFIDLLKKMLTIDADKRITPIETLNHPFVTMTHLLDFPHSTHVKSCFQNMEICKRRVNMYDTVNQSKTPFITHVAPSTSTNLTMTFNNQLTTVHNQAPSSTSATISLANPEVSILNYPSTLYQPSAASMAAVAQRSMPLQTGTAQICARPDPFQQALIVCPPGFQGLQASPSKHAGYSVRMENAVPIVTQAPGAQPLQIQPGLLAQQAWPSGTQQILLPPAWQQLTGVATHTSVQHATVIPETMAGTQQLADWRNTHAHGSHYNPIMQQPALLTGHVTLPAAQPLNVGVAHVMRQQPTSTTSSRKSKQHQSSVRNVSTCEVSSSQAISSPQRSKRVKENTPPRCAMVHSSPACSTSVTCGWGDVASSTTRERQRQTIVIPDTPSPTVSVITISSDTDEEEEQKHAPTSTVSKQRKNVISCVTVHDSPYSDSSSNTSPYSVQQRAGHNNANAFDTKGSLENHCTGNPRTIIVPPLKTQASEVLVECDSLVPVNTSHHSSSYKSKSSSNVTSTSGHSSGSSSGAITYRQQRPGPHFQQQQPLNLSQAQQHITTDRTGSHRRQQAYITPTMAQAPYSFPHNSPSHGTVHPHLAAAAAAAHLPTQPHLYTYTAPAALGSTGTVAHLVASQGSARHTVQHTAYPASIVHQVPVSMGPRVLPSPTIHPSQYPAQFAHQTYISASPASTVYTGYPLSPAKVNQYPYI

effect of a mutation on the interaction | Variant
disrupting interaction strength | T491A
